The target in assay [1] is DnaJB4 (recombinant, human, full length, wild type) (human, UniProt Q9UDY4 1-337). In words: FP.
The next assay addresses T1, CHIP (recombinant human) (human, UniProt Q9UNE7 1-303).
T1 chain: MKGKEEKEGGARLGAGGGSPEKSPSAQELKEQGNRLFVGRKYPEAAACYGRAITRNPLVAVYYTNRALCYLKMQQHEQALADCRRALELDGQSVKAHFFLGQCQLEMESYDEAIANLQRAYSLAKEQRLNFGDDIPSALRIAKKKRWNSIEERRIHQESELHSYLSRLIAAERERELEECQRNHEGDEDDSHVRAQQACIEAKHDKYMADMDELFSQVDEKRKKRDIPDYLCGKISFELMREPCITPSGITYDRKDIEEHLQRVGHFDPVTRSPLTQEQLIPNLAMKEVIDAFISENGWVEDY
In words: FP.

Where no end group is shown, it is not given here.

DnaJB4 (recombinant, human, full length, wild type), sequence (Q9UDY4 whole entry): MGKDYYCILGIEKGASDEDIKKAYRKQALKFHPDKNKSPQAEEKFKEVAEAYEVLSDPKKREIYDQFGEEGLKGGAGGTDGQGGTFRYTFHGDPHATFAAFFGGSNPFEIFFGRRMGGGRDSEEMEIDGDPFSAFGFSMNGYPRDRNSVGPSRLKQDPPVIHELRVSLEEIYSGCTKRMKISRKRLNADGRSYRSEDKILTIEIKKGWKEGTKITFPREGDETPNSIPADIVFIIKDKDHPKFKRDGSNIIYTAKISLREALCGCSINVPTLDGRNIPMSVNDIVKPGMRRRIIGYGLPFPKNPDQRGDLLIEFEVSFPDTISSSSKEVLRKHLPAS

Broadly, the Kd is the equilibrium constant for the complex coming apart. On to GSGPEIEEVD-OH (not fully specified (N-terminus); printed as FITC-Ahx-GSGPEIEEVD) [Hsp72 phosphomimetic T636E tracer FITC-Ahx-GSGPEIEEVD], for which the Kd in assay [1] is 1.68 µM; with CHIP (recombinant human), 5.04 µM.
